Results on 2 molecules are retold here after publication PMC7845647.

In this series the target is FadR (Escherichia coli (EHEC) 86-24, UniProt B5YXL1 1-239). Nature of the series: EMSA; apo FadR, no ligand. To be noted: protein: recombinant, tags: N-terminal His (pET28, NdeI/BamHI), chain copies: 2, blunt.
Chain of FadR (B5YXL1 whole entry): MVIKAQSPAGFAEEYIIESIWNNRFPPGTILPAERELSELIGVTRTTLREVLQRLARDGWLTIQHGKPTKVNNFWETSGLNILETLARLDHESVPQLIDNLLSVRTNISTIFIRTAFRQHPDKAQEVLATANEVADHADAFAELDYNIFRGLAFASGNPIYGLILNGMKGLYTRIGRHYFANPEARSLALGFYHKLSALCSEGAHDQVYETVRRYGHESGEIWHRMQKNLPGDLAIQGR

B1: fadL promoter FadR site (FadR_fadL site) (dsDNA)
DNA 1: ATCTGGTACGACCAGAT
DNA 2: ATCTGGTCGTACCAGAT
B1: under “label: 32P (EMSA, T4 PNK), none stated in thermal shift”, the binding result was “binds”.

B2: ler (LEE1) promoter distal FadR site (FadR_ler site) (dsDNA)
DNA 1: TAATCGTTTGTCCGACTTTAACAGA
DNA 2: TCTGTTAAAGTCGGACAAACGATTA
As for B2, where the note is “label: 32P (T4 PNK)”, the binding result is listed as “binds”.
